1 substance from PMC4259493 can be followed below.

Holding throughout (experiment): MST
For assay [1], the target named is α-actinin-2 wild-type, full length (human) (UniProt P35609).
For assay [2], the target named is α-actinin-2 calmodulin-like domain (CAMD, EF1-4) (human).
The target of assay [3] is α-actinin-2 wild-type, full length (human) (UniProt P35609). The source holds these as a separate data set.

Read-outs that look alike come from different tables or passages of the source.

Chain of α-actinin-2 wild-type, full length (human) (P35609 whole entry, the tested form may be a part): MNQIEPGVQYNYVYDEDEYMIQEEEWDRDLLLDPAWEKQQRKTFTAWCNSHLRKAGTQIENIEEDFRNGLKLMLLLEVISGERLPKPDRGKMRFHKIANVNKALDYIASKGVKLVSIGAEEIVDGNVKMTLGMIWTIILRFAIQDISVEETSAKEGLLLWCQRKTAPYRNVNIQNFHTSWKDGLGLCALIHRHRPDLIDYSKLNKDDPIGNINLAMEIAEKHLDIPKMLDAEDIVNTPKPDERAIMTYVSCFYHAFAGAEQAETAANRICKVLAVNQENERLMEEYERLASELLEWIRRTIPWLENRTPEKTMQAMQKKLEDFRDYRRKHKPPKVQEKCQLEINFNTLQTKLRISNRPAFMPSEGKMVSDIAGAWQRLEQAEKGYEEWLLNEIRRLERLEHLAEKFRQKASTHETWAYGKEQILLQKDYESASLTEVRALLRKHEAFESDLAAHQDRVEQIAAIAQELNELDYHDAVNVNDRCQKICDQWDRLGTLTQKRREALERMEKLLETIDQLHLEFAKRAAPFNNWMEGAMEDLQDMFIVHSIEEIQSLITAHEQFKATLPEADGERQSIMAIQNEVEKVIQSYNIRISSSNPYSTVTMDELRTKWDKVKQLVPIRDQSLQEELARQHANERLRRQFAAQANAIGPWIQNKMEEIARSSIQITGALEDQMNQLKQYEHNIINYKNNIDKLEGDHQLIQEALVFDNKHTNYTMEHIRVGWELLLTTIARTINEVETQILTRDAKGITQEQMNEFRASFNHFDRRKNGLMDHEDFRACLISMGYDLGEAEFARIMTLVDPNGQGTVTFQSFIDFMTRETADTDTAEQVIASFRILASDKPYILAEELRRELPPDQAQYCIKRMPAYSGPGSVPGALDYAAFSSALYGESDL
Chain of α-actinin-2 calmodulin-like domain (CAMD, EF1-4) (human) (P35609 whole entry, the tested form may be a part): as above
Chain of titin Zr-7 construct (amino acids Lys 692 - Arg 740) (Q8WZ42 692-740): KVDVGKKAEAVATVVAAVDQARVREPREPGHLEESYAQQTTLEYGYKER

In general, Kd refers to the free concentration of one partner at which half of the binding sites on the other are occupied at equilibrium, for simple one-to-one binding. Low readings indicate tighter binding, high ones weaker binding. With “titin Zr-7 construct (amino acids Lys 692 - Arg 740) (from UniProt Q8WZ42 692-740) (domain or fragment)”, the results for the Kd in assay [1], in assay [2] and in assay [3] were 2900 nM, 240 nM and 380 nM, respectively.
